Where a chain is given by its changes, count along the chain named. Names and notes keep the numbering of the source.
Assays:
mouse FcγRI [1] = biological target: T1, mouse FcγRI (mouse, UniProt P26151 25-297); assay: SPR (Biacore), antibody held on immobilised mouse FcRn, FcγR injected, pH 7.4, 25 C
T1 sequence (looked up): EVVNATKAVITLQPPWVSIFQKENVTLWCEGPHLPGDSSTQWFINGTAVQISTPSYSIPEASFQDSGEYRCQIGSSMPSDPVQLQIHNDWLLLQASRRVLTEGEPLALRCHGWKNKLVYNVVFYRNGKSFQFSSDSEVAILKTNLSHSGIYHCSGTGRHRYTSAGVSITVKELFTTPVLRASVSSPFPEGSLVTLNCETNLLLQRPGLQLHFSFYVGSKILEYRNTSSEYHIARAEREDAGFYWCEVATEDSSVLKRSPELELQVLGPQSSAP

mouse FcγRIIb [2] = biological target: T2, mouse FcγRIIb (mouse, UniProt P08101 30-210, limits assumed); assay: as above
T2 sequence (looked up): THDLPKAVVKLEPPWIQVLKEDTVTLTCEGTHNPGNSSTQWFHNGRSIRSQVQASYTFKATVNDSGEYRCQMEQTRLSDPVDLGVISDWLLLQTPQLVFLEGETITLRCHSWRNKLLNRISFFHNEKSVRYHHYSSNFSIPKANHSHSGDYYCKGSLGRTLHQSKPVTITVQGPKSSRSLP

mouse FcγRIII [3] = biological target: T3, mouse FcγRIII (mouse, UniProt P08508 31-215); assay: as above
T3 sequence (looked up): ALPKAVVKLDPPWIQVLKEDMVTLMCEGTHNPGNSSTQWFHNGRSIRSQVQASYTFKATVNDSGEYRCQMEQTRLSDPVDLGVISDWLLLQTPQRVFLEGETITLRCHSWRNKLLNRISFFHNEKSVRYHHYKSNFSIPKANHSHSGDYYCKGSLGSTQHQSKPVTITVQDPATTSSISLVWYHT

human FcγRIIa(H) = biological target: T4, human FcγRIIa(H) (human, UniProt P12318 36-217); assay: Biacore T100, Protein A capture, 25 C; against IgG1 (IL6R-G1d)
T4 construct: also called hFcgRIIa(H); FcγRIIa H type
T4 sequence: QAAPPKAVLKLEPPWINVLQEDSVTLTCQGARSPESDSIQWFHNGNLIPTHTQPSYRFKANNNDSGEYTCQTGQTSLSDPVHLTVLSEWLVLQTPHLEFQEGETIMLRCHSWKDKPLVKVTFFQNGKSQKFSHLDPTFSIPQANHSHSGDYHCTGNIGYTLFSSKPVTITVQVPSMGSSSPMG

human FcγRIIb [4] = biological target: T5, human FcγRIIb (human, UniProt P31994 43-217, limits assumed); assay: as above
T5 construct: also called hFcgRIIb
T5 sequence: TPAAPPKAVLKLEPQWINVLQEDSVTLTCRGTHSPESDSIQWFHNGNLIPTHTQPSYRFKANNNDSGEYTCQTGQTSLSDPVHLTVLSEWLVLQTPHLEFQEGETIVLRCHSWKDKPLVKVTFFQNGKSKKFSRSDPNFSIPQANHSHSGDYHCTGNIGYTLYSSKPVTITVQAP

human FcγRIIa(R) = biological target: T6, human FcγRIIa(R) (human, UniProt P12318 36-217); assay: Biacore T100, Protein A capture, 25 C; against IgG1 (IL6R-G1d); the Japanese text says improved 522-fold
T6 construct: also called hFcgRIIa(R); FcγRIIa R type
T6 chain: T4 sequence with H133R

[5] = biological target: T7, soluble human IL-6 receptor (human, UniProt P08887 20-357); assay: summary of the Biacore result of Reference Example 7, told in Reference Example 12
T7 construct: The stated range 1-357 is that of the expressed construct; also called hsIL-6R
T7 sequence: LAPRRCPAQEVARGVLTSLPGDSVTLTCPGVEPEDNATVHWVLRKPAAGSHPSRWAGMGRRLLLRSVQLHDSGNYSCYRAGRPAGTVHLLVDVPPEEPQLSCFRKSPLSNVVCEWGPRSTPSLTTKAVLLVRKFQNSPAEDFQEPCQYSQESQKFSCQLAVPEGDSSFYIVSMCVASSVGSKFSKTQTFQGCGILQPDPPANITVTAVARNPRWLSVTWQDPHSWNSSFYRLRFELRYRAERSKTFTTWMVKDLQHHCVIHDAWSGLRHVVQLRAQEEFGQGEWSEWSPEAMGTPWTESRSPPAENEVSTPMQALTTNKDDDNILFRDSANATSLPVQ

human FcγRIa = biological target: T8, human FcγRIa (human, UniProt P12314 16-292, limits assumed); assay: SPR (Biacore), antibody held on immobilised human FcRn, FcγR injected, pH 7.4, 25 C
T8 construct: also called hFcgRI; hFcγRIa

mouse FcγRI [6] = biological target: T1, mouse FcγRI; assay: as above
human FcγRIIb [7] = biological target: T5, human FcγRIIb; assay: as above
human FcRn [8] = biological target: T9, human FcRn (human, UniProt P55899 24-290; P61769 21-119, limits assumed); assay: as above
T9 construct: also called hFcRn

mouse FcγRIIb [9] = biological target: T2, mouse FcγRIIb; assay: as above
mouse FcγRIII [10] = biological target: T3, mouse FcγRIII; assay: as above
human FcRn [11] = biological target: T9, human FcRn; assay: Biacore, Protein L capture, human FcRn injected, pH 7.0 (Table 6 not given)
human FcRn [12] = biological target: T9, human FcRn; assay: Biacore, human FcRn, pH 7.0 (Table 20 not given)
human FcγRIIb [13] = biological target: T5, human FcγRIIb; assay: Biacore T100, Protein L capture, FcγR injected, pH 7.4, 25 C (Table 19 not given)

T9 sequence (P55899 24-290 limits assumed, chain 1 of 2): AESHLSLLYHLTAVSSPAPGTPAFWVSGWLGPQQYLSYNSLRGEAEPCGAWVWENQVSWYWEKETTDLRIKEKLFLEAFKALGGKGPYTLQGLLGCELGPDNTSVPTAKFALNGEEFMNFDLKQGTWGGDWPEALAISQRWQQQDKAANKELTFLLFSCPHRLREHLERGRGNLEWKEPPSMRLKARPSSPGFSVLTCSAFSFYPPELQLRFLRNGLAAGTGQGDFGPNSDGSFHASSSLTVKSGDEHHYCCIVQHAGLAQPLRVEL
T9 sequence (P61769 21-119 limits assumed, chain 2 of 2): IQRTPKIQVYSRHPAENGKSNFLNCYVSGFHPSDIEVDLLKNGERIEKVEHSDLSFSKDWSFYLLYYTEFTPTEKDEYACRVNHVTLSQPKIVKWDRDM
T8 sequence (P12314 16-292 limits assumed): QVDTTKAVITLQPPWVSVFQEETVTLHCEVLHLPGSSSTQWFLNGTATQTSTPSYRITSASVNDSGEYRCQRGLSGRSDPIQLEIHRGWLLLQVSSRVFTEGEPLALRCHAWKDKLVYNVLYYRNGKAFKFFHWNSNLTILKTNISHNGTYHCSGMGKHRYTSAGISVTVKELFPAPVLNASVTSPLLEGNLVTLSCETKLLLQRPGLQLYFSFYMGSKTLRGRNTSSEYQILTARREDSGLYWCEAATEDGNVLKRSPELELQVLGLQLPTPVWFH

B1: mPM1-mIgG1-mF3 (antibody)
heavy: DVQLQESGPVLVKPSQSLSLTCTVTGYSITSDHAWSWIRQFPGNKLEWMGYISYSGITTYNPSLKSRISITRDTSKNQFFLQLNSVTTGDTSTYYCARSLARTTAMDYWGQGTSVTVSSAKTTPPSVYPLAPGSAAQTNSMVTLGCLVKGYFPEPVTVTWNSGSLSSGVHTFPAVLQSDLYTLSSSVTVPSSTWPSETVTCNVAHPASSTKVDKKIVPRDCGCKPCICTVPEVSSVFIFPPKPKDVLYITLEPKVTCVVVDISKDDPEVQFSWFVDDVEVHTAQTQPREEQFNSTFRSVSELPIMHQDWLNGKEFKCRVNSAAFPAPIEKTISKTKGRPKAPQVYTIPPPKEQMAKDKVSLTCMITDFFPEDITVEWQWNGQPAENYKNTQPIMDTDGSYFVYSKLNVQKSNWEAGNTFTCSVLHEGLKFHHTEKSLSHSPGK
light: DIQMTQTTSSLSASLGDRVTISCRASQDISSYLNWYQQKPDGTIKLLIYYTSRLHSGVPSRFSGSGSGTDYSLTINNLEQEDIATYFCQQGNTLPYTFGGGTKLEIKRADAAPTVSIFPPSSEQLTSGGASVVCFLNNFYPKDINVKWKIDGSERQNGVLNSWTDQDSKDSTYSMSSTLTLTKDEYERHNSYTCEATHKTSTSPIVKSFNRNEC
notes: Mouse IgG1 anti-human IL-6R antibody of mPM1H-mIgG1-mF3 and mPM1L-mk1; copies: 2 + 2
B1: no binding (mouse FcγRI [1]); binds (mouse FcγRIIb [2]); binds (mouse FcγRIII [3]).

B2: IgG1-v3 (IL6R-G1d_v3/IL6R-L) (antibody)
heavy: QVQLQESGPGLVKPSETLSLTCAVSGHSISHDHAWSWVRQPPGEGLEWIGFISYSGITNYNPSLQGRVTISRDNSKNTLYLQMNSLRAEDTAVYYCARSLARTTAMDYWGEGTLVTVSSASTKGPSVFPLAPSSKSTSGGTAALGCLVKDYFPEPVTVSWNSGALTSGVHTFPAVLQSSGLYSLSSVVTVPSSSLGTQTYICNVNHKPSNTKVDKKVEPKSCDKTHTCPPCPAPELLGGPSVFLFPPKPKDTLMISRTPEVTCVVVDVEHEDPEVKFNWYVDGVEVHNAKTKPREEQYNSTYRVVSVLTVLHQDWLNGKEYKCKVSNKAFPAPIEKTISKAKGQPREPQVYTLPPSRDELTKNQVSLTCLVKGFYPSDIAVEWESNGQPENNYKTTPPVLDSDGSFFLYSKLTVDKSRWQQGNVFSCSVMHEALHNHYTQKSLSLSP
light: DIQMTQSPSSLSASVGDRVTITCRASQDISSYLNWYQQKPGKAPKLLIYYTSRLHSGVPSRFSGSGSGTDFTFTISSLQPEDIATYYCQQGNTLPYTFGQGTKVEIK
notes: IL6R-G1d with S267E/L328F (EU), known mutation used for comparison; copies: 2 + 2
With B2 the “relative KD (KD of IgG1 divided by KD of the variant)” value (human FcγRIIa(H)) was 0.51 fold, the “relative KD (KD of IgG1 divided by KD of the variant)” value (human FcγRIIb [4]) was 408 fold and the “relative KD (KD of IgG1 divided by KD of the variant)” value (human FcγRIIa(R)) was 522 fold.

B3: 6RL#9-IgG1 (antibody, V domains shown, not shown: a dimerising Fc or GST)
VH: QVQLVQSGAEVKKPGASVKVSCKASGYTFTSYYMHWVRQAPGQGLEWMGIINPSGGSTSYAQKFQGRVTMTRDTSTSTVYMELSSLRSEDTAVYYCARDDPGGGEYYFDYWGQGTLVTVSS
VL: QSVLTQPPSVSGAPGQRVTISCTGSRSNMGAGYDVHWYQLLPGAAPKLLISHNTHRPSGVPDRFSGSKSGASASLAITGLQAEDEADYYCQSHDSSLSAVVFGGGTKLTVLS
notes: Ca-dependent anti-human IL-6 receptor antibody from a naive human phage library; also called 6RL#9 antibody
In the case of B3, the “Ca-dependence of binding (fold)” value [5] is reported as no less than 100 fold.

B4: Fv4-IgG1-F157 (antibody)
heavy: QVQLQESGPGLVKPSETLSLTCAVSGHSISHDHAWSWVRQPPGEGLEWIGFISYSGITNYNPSLQGRVTISRDNSKNTLYLQMNSLRAEDTAVYYCARSLARTTAMDYWGEGTLVTVSSASTKGPSVFPLAPSSKSTSGGTAALGCLVKDYFPEPVTVSWNSGALTSGVHTFPAVLQSSGLYSLSSVVTVPSSSLGTQTYICNVNHKPSNTKVDKKVEPKSCDKTHTCPPCPAPELLGGPSVFLFPPKPKDTLMISRTAEVTCVVVDVSHEDPEVKFNWYVDGVEVHNAKTKPREEQYNSTYRVVSVLTPLHQDWLNGKEYKCKVSNKALPAPIEKTISKAKGQPREPQVYTLPPSRDELTKNQVSLTCLVKGFYPSDIAVEWESNGQPENNYKTTPPVLDSDGSFFLYSKLTVDKSRWQQGNVFSCSVLHEALHYHYTQKSLSLSP
light: DIQMTQSPSSLSASVGDSVTITCQASTDISSHLNWYQQKPGKAPELLIYYGSHLLSGVPSRFSGSGSGTDFTFTISSLEAEDAATYYCGQGNRLPYTFGQGTKVEIERTVAAPSVFIFPPSDEQLKSGTASVVCLLNNFYPREAKVQWKVDNALQSGNSQESVTEQDSKDSTYSLSSTLTLSKADYEKHKVYACEVTHQGLSSPVTKSFNRGEC
notes: VH3-IgG1-F157 with VL3-CK; copies: 2 + 2
B4: binds (human FcγRIa); binds (mouse FcγRI [6]); binds (human FcγRIIb [7]). B4: binds (human FcRn [8]); binds (mouse FcγRIIb [9]); binds (mouse FcγRIII [10]).

B5: VH3/L(WT)-IgG1-F21 (antibody)
heavy: B4 heavy with M254Y, A259P, L430M
light: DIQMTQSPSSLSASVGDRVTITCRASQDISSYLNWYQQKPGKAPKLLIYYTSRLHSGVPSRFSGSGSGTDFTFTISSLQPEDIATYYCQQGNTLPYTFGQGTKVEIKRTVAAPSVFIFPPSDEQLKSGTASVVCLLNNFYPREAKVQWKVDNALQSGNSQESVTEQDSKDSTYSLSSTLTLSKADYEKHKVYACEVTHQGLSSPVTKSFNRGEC
notes: Measured with light chain L(WT)-CK; result sentences name it Fv4-IgG1-F21; also called Fv4-IgG1-F21; copies: 2 + 2
B5: binds (human FcRn [11]).

B6: VH3/L(WT)-IgG1-F652 (antibody)
heavy: B4 heavy with P240D, M254Y, A259P, P310V, L430M
light: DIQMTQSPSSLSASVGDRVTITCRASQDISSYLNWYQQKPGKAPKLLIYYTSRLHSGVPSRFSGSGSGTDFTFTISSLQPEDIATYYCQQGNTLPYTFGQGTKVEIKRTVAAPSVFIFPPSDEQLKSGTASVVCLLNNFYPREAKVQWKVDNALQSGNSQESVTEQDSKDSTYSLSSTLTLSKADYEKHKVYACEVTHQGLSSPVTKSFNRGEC
notes: VH3-IgG1-F11 with P238D (EU); copies: 2 + 2
B6: binds (human FcRn [12]); binds (human FcγRIIb [13]).

B7: VH3/L(WT)-IgG1-F157 (antibody)
heavy: B4 heavy
light: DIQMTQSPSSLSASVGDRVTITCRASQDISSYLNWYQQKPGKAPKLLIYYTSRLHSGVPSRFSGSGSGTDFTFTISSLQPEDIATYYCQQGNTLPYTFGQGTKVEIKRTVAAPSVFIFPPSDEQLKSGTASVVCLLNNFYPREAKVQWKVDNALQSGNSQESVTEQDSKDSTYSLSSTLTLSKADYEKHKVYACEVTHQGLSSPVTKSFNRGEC
notes: also called Fv4-IgG1-F157 (name in result sentence); copies: 2 + 2
B7: binds (human FcRn [11]).

B8: Fv4-IgG1-F20 (antibody)
heavy: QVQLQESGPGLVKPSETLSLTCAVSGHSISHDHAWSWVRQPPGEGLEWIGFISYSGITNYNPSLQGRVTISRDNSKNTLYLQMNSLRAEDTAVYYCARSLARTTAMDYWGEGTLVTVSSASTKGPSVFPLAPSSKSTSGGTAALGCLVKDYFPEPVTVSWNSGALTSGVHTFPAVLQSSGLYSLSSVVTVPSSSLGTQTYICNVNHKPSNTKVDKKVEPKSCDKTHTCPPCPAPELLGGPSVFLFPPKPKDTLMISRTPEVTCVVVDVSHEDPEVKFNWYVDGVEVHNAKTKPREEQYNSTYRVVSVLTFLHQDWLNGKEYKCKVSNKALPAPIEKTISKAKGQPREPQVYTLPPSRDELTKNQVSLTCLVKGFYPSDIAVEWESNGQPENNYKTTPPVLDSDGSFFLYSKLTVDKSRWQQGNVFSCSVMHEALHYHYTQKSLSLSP
light: B4 light
notes: VH3-IgG1-F20 with VL3-CK; copies: 2 + 2
B8: binds (mouse FcγRI [1]); binds (mouse FcγRIIb [2]); binds (mouse FcγRIII [3]).

B9: FH4-IgG1 (antibody, V domains shown)
VH: QVQLVQSGAEVKKPGSSVKVSCKASGGTFSSYAISWVRQAPGQGLEWMGGIIPIFGTANYAQKFQGRVTITADESTSTAYMELSSLRSEDTAVYYCARERDYYDSSGYYDAFDIWGQGTMVTVSS
VL: ETTVTQSPSFLSASVGDRVTITCITTTDIDDDMNWFQQEPGKAPKLLISEGNILRPGVPSRFSSSGYGTDFTLTISKLQPEDFATYYCLQSDNLPFTFGQGTKLEIKR
notes: Ca-dependent anti-human IL-6 receptor antibody from a naive human phage library
In the case of B9, the “Ca-dependence of binding (fold)” value [5] is reported as no less than 100 fold.
